Test results taken from US20210371491A1 (ALBERT LUDWIGS UNIVERSITAET FREIBURG, published 2021).

B1: CAR28, anti-PSMA CAR with CD28 co-stimulatory domain (scFv D7) (other)
chain: MDFQVQIFSFLLISASVIMSRMAQVQLQQSGAELVEPGASVKLSCKASGYTFTYFDINWLRQRPEQGLEWIGGISPGDGNTNYNENFKGKATLTIDKSSTTAYIQLSRLTSEDSAVYFCARDGNFPYYAMDSWGQGTSVTVSSAKTTPKLGGGGSGGGGSGGGGSARVDIELTQSPLSLPVILGDQASISCRSSQSLVHSNGNTYLHWFLQKPGQSPKLLIYTVSNRFSGVPDRFSGSGSGTDFTLKISRVEAEDLGVYFCSQSTHVPTFGGGTKLEIKRSDPAEPKSPDKTHTCPPCPAPPVAGPSVFLFPPKPKDTLMIARTPEVTCVVVDVSHEDPEVKFNWYVDGVEVHNAKTKPREEQYNSTYRVVSVLTVLHQDWLNGKEYKCKVSNKALPAPIEKTISKAKGQPREPQVYTLPPSRDELTKNQVSLTCLVKGFYPSDIAVEWESNGQPENNYKTTPPVLDSDGSFFLYSKLTVDKSRWQQGNVFSCSVMHEALHNHYTQKSLSLSPGKKDPKFWVLVVVGGVLACYSLLVTVAFIIFWVRSKRSRLLHSDYMNMTPRRPGPTRKHYQAYAAARDFAAYRSLRVKFSRSADAPAYQQGQNQLYNELNLGRREEYDVLDKRRGRDPEMGGKPRRKNPQEGLYNELQKDKMAEAYSEIGMKGERRRGKGHDGLYQGLSTATKDTYDALHMQALPPR
B2: CAR41, anti-PSMA CAR with 4-1BB co-stimulatory domain (scFv D7) (other)
chain: MDFQVQIFSFLLISASVIMSRMAQVQLQQSGAELVEPGASVKLSCKASGYTFTYFDINWLRQRPEQGLEWIGGISPGDGNTNYNENFKGKATLTIDKSSTTAYIQLSRLTSEDSAVYFCARDGNFPYYAMDSWGQGTSVTVSSAKTTPKLGGGGSGGGGSGGGGSARVDIELTQSPLSLPVILGDQASISCRSSQSLVHSNGNTYLHWFLQKPGQSPKLLIYTVSNRFSGVPDRFSGSGSGTDFTLKISRVEAEDLGVYFCSQSTHVPTFGGGTKLEIKRAAALPAEPKSPDKTHTCPPCPAPPVAGPSVFLFPPKPKDTLMIARTPEVTCVVVDVSHEDPEVKFNWYVDGVEVHNAKTKPREEQYNSTYRVVSVLTVLHQDWLNGKEYKCKVSNKALPAPIEKTISKAKGQPREPQVYTLPPSRDELTKNQVSLTCLVKGFYPSDIAVEWESNGQPENNYKTTPPVLDSDGSFFLYSKLTVDKSRWQQGNVFSCSVMHEALHNHYTQKSLSSLSPGKKIYIWAPLAGTCGVLLLSLVITLYCKRGRKKLLYIFKQPFMRPVQTTQEEDGCSCRFPEEEEGGCELLRVKFSRSADAPAYQQGQNQLYNELNLGRREEYDVLDKRRGRDPEMGGKPRRKNPQEGLYNELQKDKMAEAYSEIGMKGERRRGKGHDGLYQGLSTATKDTYDALHMQALPPR

Molecular target: prostate specific membrane antigen (PSMA) (UniProt Q04609 1-750, limits assumed)
Sequence (Q04609 whole entry, form in doubt): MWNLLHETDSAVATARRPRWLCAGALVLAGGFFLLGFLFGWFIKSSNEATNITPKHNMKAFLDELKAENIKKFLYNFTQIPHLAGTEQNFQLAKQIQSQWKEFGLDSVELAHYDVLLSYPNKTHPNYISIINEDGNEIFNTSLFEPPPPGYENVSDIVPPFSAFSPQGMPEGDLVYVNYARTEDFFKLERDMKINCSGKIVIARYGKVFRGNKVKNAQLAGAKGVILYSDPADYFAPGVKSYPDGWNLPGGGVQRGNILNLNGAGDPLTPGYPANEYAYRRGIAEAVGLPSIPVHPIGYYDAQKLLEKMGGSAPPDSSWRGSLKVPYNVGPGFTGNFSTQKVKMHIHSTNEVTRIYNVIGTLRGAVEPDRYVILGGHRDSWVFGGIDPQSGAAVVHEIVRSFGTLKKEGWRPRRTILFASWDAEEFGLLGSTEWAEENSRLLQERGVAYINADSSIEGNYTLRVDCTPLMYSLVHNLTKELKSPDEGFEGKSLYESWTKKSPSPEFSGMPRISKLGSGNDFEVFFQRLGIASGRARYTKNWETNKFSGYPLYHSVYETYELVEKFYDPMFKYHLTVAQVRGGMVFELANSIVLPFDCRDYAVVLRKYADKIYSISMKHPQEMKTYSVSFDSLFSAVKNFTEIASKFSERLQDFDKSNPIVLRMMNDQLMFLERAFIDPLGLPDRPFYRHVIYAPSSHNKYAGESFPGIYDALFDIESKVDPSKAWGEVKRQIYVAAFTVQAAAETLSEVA
Assay: cell-based or functional assay

Binder	cytotoxicity (XTT assay), PSMA expressing cells eliminated at E:T ratio 1:1	cytotoxicity (XTT assay), target cells eliminated at E:T ratio 1:4, 48 h co-culture with C4-2 cells
B1	≤ 90%	~90%
B2	≤ 90%	–
